# B1: PAIP1 peptide 124-139 (Polyadenylate-binding protein-interacting protein 1), 16-mer library wild type / PABPC1 PABC (PABPC1 PABC domain, residues 544-623) (parent complex)
# chain 1: LMSKLSVNAPEFYPSG
# chain 2: PLTASMLASAPPQEQKQMLGERLFPLIQAMHPTLAGKITGMLLEIDNSELLHMLESPESLRSKVDEAVAVLQAHQAKEAA
# B2: CBL peptide 538-553 (E3 ubiquitin-protein ligase CBL), 16-mer library wild type / YES SH3 (YES1 SH3 domain, residues 90-152) (parent complex)
# chain 1: TLRDLPPPPPPDRPYS
# chain 2: not shown
# Variants of: B1
# Test: proteomic peptide phage display deep mutational scan (ProP-PD DMS): M13 P8 16-mer library selected against immobilised GST-tagged bait for four days (rounds), NGS of the eluted pools per day and pseudo-replica; bait immobilised on MaxiSorp plates (10 µg), library pre-cleared on GST, 2 h binding at 4 °C, five washes; one round per day, days 1-4; value from days 2 and 3
row,Variant,screen value
1,chain 1 E11V,"0.00325 average fractional NGS count over selection days 2 and 3 (reads of this peptide / all reads for the bait, averaged over …"
2,chain 1 N8M,"0.000551 average fractional NGS count over selection days 2 and 3 (reads of this peptide / all reads for the bait, averaged over …"
3,chain 1 Y13T,"0.00149 average fractional NGS count over selection days 2 and 3 (reads of this peptide / all reads for the bait, averaged over …"
4,chain 1 P10D,"0.00221 average fractional NGS count over selection days 2 and 3 (reads of this peptide / all reads for the bait, averaged over …"
5,chain 1 E11P,"0.000423 average fractional NGS count over selection days 2 and 3 (reads of this peptide / all reads for the bait, averaged over …"
6,chain 1 Y13H,"0.000948 average fractional NGS count over selection days 2 and 3 (reads of this peptide / all reads for the bait, averaged over …"
7,chain 1 G16S,"0.0008 average fractional NGS count over selection days 2 and 3 (reads of this peptide / all reads for the bait, averaged over …"
8,chain 1 P10N,"0.00136 average fractional NGS count over selection days 2 and 3 (reads of this peptide / all reads for the bait, averaged over …"
9,chain 1 P14M,"0.000928 average fractional NGS count over selection days 2 and 3 (reads of this peptide / all reads for the bait, averaged over …"
10,chain 1 P10Q,"0.000419 average fractional NGS count over selection days 2 and 3 (reads of this peptide / all reads for the bait, averaged over …"
11,chain 1 S15A,"0.00144 average fractional NGS count over selection days 2 and 3 (reads of this peptide / all reads for the bait, averaged over …"
12,chain 1 V7H,"0.00381 average fractional NGS count over selection days 2 and 3 (reads of this peptide / all reads for the bait, averaged over …"
13,chain 1 S3E,"0.000689 average fractional NGS count over selection days 2 and 3 (reads of this peptide / all reads for the bait, averaged over …"
14,chain 1 S15I,"0.000837 average fractional NGS count over selection days 2 and 3 (reads of this peptide / all reads for the bait, averaged over …"
15,chain 1 P10R,"0.000887 average fractional NGS count over selection days 2 and 3 (reads of this peptide / all reads for the bait, averaged over …"
16,chain 1 Y13L,"0.00572 average fractional NGS count over selection days 2 and 3 (reads of this peptide / all reads for the bait, averaged over …"
17,chain 1 S15H,"0.0055 average fractional NGS count over selection days 2 and 3 (reads of this peptide / all reads for the bait, averaged over …"
18,chain 1 V7S,"0.00035 average fractional NGS count over selection days 2 and 3 (reads of this peptide / all reads for the bait, averaged over …"
19,chain 1 Y13Q,"0.00152 average fractional NGS count over selection days 2 and 3 (reads of this peptide / all reads for the bait, averaged over …"

row,Variant,screen value
1,chain 1 P10I,"0.000358 average fractional NGS count over selection days 2 and 3 (reads of this peptide / all reads for the bait, averaged over …"
2,chain 1 N8Y,"0.000292 average fractional NGS count over selection days 2 and 3 (reads of this peptide / all reads for the bait, averaged over …"
3,chain 1 S15T,"0.000722 average fractional NGS count over selection days 2 and 3 (reads of this peptide / all reads for the bait, averaged over …"
4,chain 1 K4Q,"0.00289 average fractional NGS count over selection days 2 and 3 (reads of this peptide / all reads for the bait, averaged over …"
5,chain 1 S15K,"0.000858 average fractional NGS count over selection days 2 and 3 (reads of this peptide / all reads for the bait, averaged over …"
6,chain 1 N8L,"0.00116 average fractional NGS count over selection days 2 and 3 (reads of this peptide / all reads for the bait, averaged over …"
7,chain 1 M2L,"0.000374 average fractional NGS count over selection days 2 and 3 (reads of this peptide / all reads for the bait, averaged over …"
8,chain 1 E11S,"0.00171 average fractional NGS count over selection days 2 and 3 (reads of this peptide / all reads for the bait, averaged over …"
9,chain 1 S15W,"0.000557 average fractional NGS count over selection days 2 and 3 (reads of this peptide / all reads for the bait, averaged over …"
10,chain 1 S15D,"0.00256 average fractional NGS count over selection days 2 and 3 (reads of this peptide / all reads for the bait, averaged over …"
11,chain 1 K4R,"0.000924 average fractional NGS count over selection days 2 and 3 (reads of this peptide / all reads for the bait, averaged over …"
12,chain 1 S3L,"0.000356 average fractional NGS count over selection days 2 and 3 (reads of this peptide / all reads for the bait, averaged over …"
13,chain 1 E11Y,"0.000125 average fractional NGS count over selection days 2 and 3 (reads of this peptide / all reads for the bait, averaged over …"
14,chain 1 E11A,"0.00172 average fractional NGS count over selection days 2 and 3 (reads of this peptide / all reads for the bait, averaged over …"
15,chain 1 G16K,"0.000565 average fractional NGS count over selection days 2 and 3 (reads of this peptide / all reads for the bait, averaged over …"
16,chain 1 L5M,"0.0192 average fractional NGS count over selection days 2 and 3 (reads of this peptide / all reads for the bait, averaged over …"
17,chain 1 S3V,"0.00074 average fractional NGS count over selection days 2 and 3 (reads of this peptide / all reads for the bait, averaged over …"
18,chain 1 S3D,"0.000994 average fractional NGS count over selection days 2 and 3 (reads of this peptide / all reads for the bait, averaged over …"
19,chain 1 P14A,"0.0008 average fractional NGS count over selection days 2 and 3 (reads of this peptide / all reads for the bait, averaged over …"

row,Variant,screen value
1,chain 1 M2N,"0.00156 average fractional NGS count over selection days 2 and 3 (reads of this peptide / all reads for the bait, averaged over …"
2,chain 1 P10K,"0.000696 average fractional NGS count over selection days 2 and 3 (reads of this peptide / all reads for the bait, averaged over …"
3,chain 1 N8T,"0.00351 average fractional NGS count over selection days 2 and 3 (reads of this peptide / all reads for the bait, averaged over …"
4,chain 1 G16D,"0.000205 average fractional NGS count over selection days 2 and 3 (reads of this peptide / all reads for the bait, averaged over …"
5,chain 1 S15V,"0.00767 average fractional NGS count over selection days 2 and 3 (reads of this peptide / all reads for the bait, averaged over …"
6,chain 1 V7A,"0.00224 average fractional NGS count over selection days 2 and 3 (reads of this peptide / all reads for the bait, averaged over …"
7,chain 1 F12Y,"0.00127 average fractional NGS count over selection days 2 and 3 (reads of this peptide / all reads for the bait, averaged over …"
8,chain 1 P14Q,"0.000256 average fractional NGS count over selection days 2 and 3 (reads of this peptide / all reads for the bait, averaged over …"
9,chain 1 K4D,"0.000813 average fractional NGS count over selection days 2 and 3 (reads of this peptide / all reads for the bait, averaged over …"
10,chain 1 E11D,"0.000612 average fractional NGS count over selection days 2 and 3 (reads of this peptide / all reads for the bait, averaged over …"
11,chain 1 G16V,"0.0229 average fractional NGS count over selection days 2 and 3 (reads of this peptide / all reads for the bait, averaged over …"
12,chain 1 Y13A,"0.001 average fractional NGS count over selection days 2 and 3 (reads of this peptide / all reads for the bait, averaged over …"
13,chain 1 N8E,"0.000334 average fractional NGS count over selection days 2 and 3 (reads of this peptide / all reads for the bait, averaged over …"
14,chain 1 G16Y,"0.00314 average fractional NGS count over selection days 2 and 3 (reads of this peptide / all reads for the bait, averaged over …"
15,chain 1 L5W,"0.000754 average fractional NGS count over selection days 2 and 3 (reads of this peptide / all reads for the bait, averaged over …"
16,chain 1 S3W,"0.00081 average fractional NGS count over selection days 2 and 3 (reads of this peptide / all reads for the bait, averaged over …"
17,chain 1 M2K,"0.000358 average fractional NGS count over selection days 2 and 3 (reads of this peptide / all reads for the bait, averaged over …"
18,chain 1 G16N,"0.000134 average fractional NGS count over selection days 2 and 3 (reads of this peptide / all reads for the bait, averaged over …"

# Variants of: B2
# Test: as above
row,Variant,screen value
1,chain 1 R13L,"0.00161 average fractional NGS count over selection days 2 and 3 (reads of this peptide / all reads for the bait, averaged over …"
2,chain 1 P8A,"9.08e-05 average fractional NGS count over selection days 2 and 3 (reads of this peptide / all reads for the bait, averaged over …"
3,chain 1 S16W,"0.00897 average fractional NGS count over selection days 2 and 3 (reads of this peptide / all reads for the bait, averaged over …"
4,chain 1 L5Q,"0.000137 average fractional NGS count over selection days 2 and 3 (reads of this peptide / all reads for the bait, averaged over …"
5,chain 1 P7Y,"0.000234 average fractional NGS count over selection days 2 and 3 (reads of this peptide / all reads for the bait, averaged over …"
6,chain 1 P10V,"0.00306 average fractional NGS count over selection days 2 and 3 (reads of this peptide / all reads for the bait, averaged over …"
7,chain 1 S16T,"0.000743 average fractional NGS count over selection days 2 and 3 (reads of this peptide / all reads for the bait, averaged over …"
8,chain 1 Y15H,"0.0004 average fractional NGS count over selection days 2 and 3 (reads of this peptide / all reads for the bait, averaged over …"
9,chain 1 Y15A,"0.00482 average fractional NGS count over selection days 2 and 3 (reads of this peptide / all reads for the bait, averaged over …"
10,chain 1 Y15E,"9.17e-05 average fractional NGS count over selection days 2 and 3 (reads of this peptide / all reads for the bait, averaged over …"
11,chain 1 D4N,"0.00132 average fractional NGS count over selection days 2 and 3 (reads of this peptide / all reads for the bait, averaged over …"
12,chain 1 R3Y,"0.000386 average fractional NGS count over selection days 2 and 3 (reads of this peptide / all reads for the bait, averaged over …"
13,chain 1 D12S,"0.000329 average fractional NGS count over selection days 2 and 3 (reads of this peptide / all reads for the bait, averaged over …"
14,chain 1 P6M,"0.000156 average fractional NGS count over selection days 2 and 3 (reads of this peptide / all reads for the bait, averaged over …"
15,chain 1 Y15G,"0.000388 average fractional NGS count over selection days 2 and 3 (reads of this peptide / all reads for the bait, averaged over …"
16,chain 1 L2Y,"0.00467 average fractional NGS count over selection days 2 and 3 (reads of this peptide / all reads for the bait, averaged over …"
17,chain 1 Y15S,"0.000415 average fractional NGS count over selection days 2 and 3 (reads of this peptide / all reads for the bait, averaged over …"
18,chain 1 Y15K,"0.000227 average fractional NGS count over selection days 2 and 3 (reads of this peptide / all reads for the bait, averaged over …"
19,chain 1 R3E,"0.000121 average fractional NGS count over selection days 2 and 3 (reads of this peptide / all reads for the bait, averaged over …"

# — article PMC12102759 (2025)
